Experimental data as given in patent US20240166755A1, “CHIMERIC ANTIGEN RECEPTORS TARGETING CANCER” (University of Southern California, priority 2016, published 2024).

These binders were tested against human MPL (thrombopoietin receptor) (human) (UniProt P40238) (assay: cell-based or functional assay).

| GFP induction (%) in CAR-expressing Jurkat-NFAT-EGFP cells, target cell line HEL [%] | GFP induction (%) in CAR-expressing Jurkat-NFAT-EGFP cells, target cell line RAJI-Mpl [%] | GFP induction (%) in CAR-expressing Jurkat-NFAT-EGFP cells, target cell line RAJI-vector [%] | Binder |
| --- | --- | --- | --- |
| 5 | 6 | 4 | CD8SP-12E10-(vL-vH)-Myc-CD28z-T2A-PAC(031615-S03) (scFv) DQVQLQQSGPGLVKPSETLSLTCTVSGDSISSYYWSWIRQPPGKGLEWIGYIYYSGSTNYNPSLKSRVTISVDTSKSQFSLKLSSVTAADTAVYYCARGRYFDVWGRGTMVTSSGGGGSGGGGSGGGGSSSYVLTQPPSVSGSPGQSITISCTGTSSDVGGYNYVSWYQQHPGKAPKLMIYEGSKRPSGVSNRFSGSKSGNTASLTISGLQAEDEADYYCSSYTTRSTRVFGGGTKLTVLGAAATREQKLISEEDLKIEVMYPPPYLDNEKSNGTIIHVKGKHLCPSPLFPGPSKPFWVLVVVGGVLACYSLLVTVAFIIFWVRSKRSRLLHSDYMNMTPRRPGPTRKHYQPYAPPRDFAAYRSRVKFSRSADAPAYQQGQNQLYNELNLGRREEYDVLDKRRGRDPEMGGKPRRKNPQEGLYNELQKDKMAEAYSEIGMKGERRRGKGHDGLYQGLSTATKDTYDALHMQALPPRSSGSGEGRGSLLTCGDVEENPG |
| 14 | 11 | 5 | CD8SP-161-(vL-vH)-Myc-CD28z-T2A-PAC(021715-Z07) (scFv) DDIQMTQSSSSFSVSLGDRVTITCMASEDIYIRLAWYQQKPGNAPRLLISAATSLETGVPSRFSGSGSGKDYTLSITSLQTEDVGTYYCQQYWSSPWTFGGGTKLEINGGGGSGGGGSGGGGSDVQLQESGPGLVKPSQSLSLTCTVTGYSITSDYTWNWIRQFPGNKLEWMGYITYSGSTSYNPSLKSRNSITRDTSKNQFFLQLNSVTTEDTATYYCARLGRRYTMDYWGQGTSVTVSSTREQKLISEEDLKIEVMYPPPYLDNEKSNGTIIHVKGKHLCPSPLFPGPSKPFWVLVVVGGVLACYSLLVTVAFIIFWVRSKRSRLLHSDYMNMTPRRPGPTRKHYQPYAPPRDFAAYRSRVKFSRSADAPAYQQGQNQLYNELNLGRREEYDVLDKRRGRDPEMGGKPRRKNPQEGLYNELQKDKMAEAYSEIGMKGERRRGKGHDGLYQGLSTATKDTYDALHMQALPPRSSGSGEGRGSLLTCGDVEENPG |
| 2 | 3 | 4 | CD8SP-178-(vL-vH)-Myc-CD28z-T2A-PAC(031615-R04) (scFv) DIVMTQAAPSIPVTPGESVSISCRSDKSLLHSNGNTYLFWFLQRPGQSPQLLIYRMSNLASGVPDRFSGSGSGTAFTLRISGVEAEDVGVYYCMQHLEYPYTFGGGTKLEIKGGGGSGGGGSGGGGSQVQLQQSGPELVKPGASVKMSCKASGYAFSSSWLNWVRQRPGKGLEWIGRIYPGDGENHYNGKFKGKATLTADKSSSTGYMQLSSLTSEDSAVYFCASYYEGGYWGQGTLITVSATREQKLISEEDLKIEVMYPPPYLDNEKSNGTIIHVKGKHLCPSPLFPGPSKPFWVLVVVGGVLACYSLLVTVAFIIFWVRSKRSRLLHSDYMNMTPRRPGPTRKHYQPYAPPRDFAAYRSRVKFSRSADAPAYQQGQNQLYNELNLGRREEYDVLDKRRGRDPEMGGKPRRKNPQEGLYNELQKDKMAEAYSEIGMKGERRRGKGHDGLYQGLSTATKDTYDALHMQALPPRSSGSGEGRGSLLTCGDVEENPG |
| 1 | 6 | 3 | CD8SP-AB317-(vL-vH)-Myc-CD28z-T2A-PAC(031615-T04) (scFv) DIVLTQSPASLAVSLGQSVTISCRASESVEYYGTSLMQWYQQKPGQPPKLLIYGASNVESGVPARFSGSGSGTDFSLNIHPVEEDDIAMYFCQQSRKVPWTFGGGTKLEIKGGGGSGGGGSGGGGSEVKLVESGGGLVKPGGSRKLSCAASGFTFSSYTMSWVRQTPAKRLEWVATISSGSSTIYYADTVKGRFTISRDNAKNTLFLQMTSLRSEDTAMYYCARRWFLDCWGQGTTLTVSSTREQKLISEEDLKIEVMYPPPYLDNEKSNGTIIHVKGKHLCPSPLFPGPSKPFWVLVVVGGVLACYSLLVTVAFIIFWVRSKRSRLLHSDYMNMTPRRPGPTRKHYQPYAPPRDFAAYRSRVKFSRSADAPAYQQGQNQLYNELNLGRREEYDVLDKRRGRDPEMGGKPRRKNPQEGLYNELQKDKMAEAYSEIGMKGERRRGKGHDGLYQGLSTATKDTYDALHMQALPPRSSGSGEGRGSLLTCGDVEENPG |
| 33 | 18 | 11 | CD8SP-175-(vL-vH)-Myc-CD28z-T2A-PAC(031615-Q04) (scFv) DQIVLTQSPAIMSASPGEKVTISCSASSSVSYMYWYQQKPGSSPKPWIYRTSNLASGVPARFSGSGSGTSYSLTISNMEAEDAAAYYCQQYHSYPTTFGGGTKLEVKGGGGSGGGGSGGGGSEVQLVESGGGLVQPKGSLKLSCAASGFSFNTYAMNWVRQAPGKGLEWIAHIRSKSNNFATYYADSVKDRFSISRDASENILFLQMNNLKTEDTAMYYCVRQGGDFPMDYWGQGTSVTVSSTREQKLISEEDLKIEVMYPPPYLDNEKSNGTIIHVKGKHLCPSPLFPGPSKPFWVLVVVGGVLACYSLLVTVAFIIFWVRSKRSRLLHSDYMNMTPRRPGPTRKHYQPYAPPRDFAAYRSRVKFSRSADAPAYQQGQNQLYNELNLGRREEYDVLDKRRGRDPEMGGKPRRKNPQEGLYNELQKDKMAEAYSEIGMKGERRRGKGHDGLYQGLSTATKDTYDALHMQALPPRSSGSGEGRGSLLTCGDVEENPG |
